Test system: N=C(N)NCCC[C@H](NC(=O)[C@H](Cc1ccccc1)NC(=O)OCc1ccccc1)C(=O)Nc1ccc([N+](=O)[O-])cc1
Assay: purified protein
Conditions: proenzyme heat-shocked 10 min at 56°C, then activated, assay at room temperature

Chain of EP-B2 (Hordeum vulgare) (chain, as listed by the source): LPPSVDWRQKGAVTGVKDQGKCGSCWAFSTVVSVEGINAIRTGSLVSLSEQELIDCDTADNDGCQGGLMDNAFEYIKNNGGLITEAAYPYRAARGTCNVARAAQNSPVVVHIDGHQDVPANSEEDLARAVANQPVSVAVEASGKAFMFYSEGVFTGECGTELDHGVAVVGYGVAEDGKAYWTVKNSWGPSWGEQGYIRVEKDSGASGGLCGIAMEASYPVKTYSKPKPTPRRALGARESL
Chain of EP-B2 (Hordeum vulgare; K311A) (chain, as listed by the source K311A): as the sequence (chain, as listed by the source) above, with K178A counted along it

Row | Substance | Km [µM] | Vmax [µM/min] | Km (variant M3) [µM] | Vmax (variant M3) [µM/min]
1 | EP-B2 (Hordeum vulgare) | 530.0 | 0.142 |  | 
2 | EP-B2 (Hordeum vulgare; K311A) |  |  | 1188 | 0.236

Reference: paper PMC7040222
